The target in this experiment is T1, VPS10P domain of sortilin fused with GST (mouse, UniProt Q6PHU5 76-750).
T1 construct: also called GST-VPS10P; GST-tagged VPS10P domain of sortilin
T1 sequence (looked up): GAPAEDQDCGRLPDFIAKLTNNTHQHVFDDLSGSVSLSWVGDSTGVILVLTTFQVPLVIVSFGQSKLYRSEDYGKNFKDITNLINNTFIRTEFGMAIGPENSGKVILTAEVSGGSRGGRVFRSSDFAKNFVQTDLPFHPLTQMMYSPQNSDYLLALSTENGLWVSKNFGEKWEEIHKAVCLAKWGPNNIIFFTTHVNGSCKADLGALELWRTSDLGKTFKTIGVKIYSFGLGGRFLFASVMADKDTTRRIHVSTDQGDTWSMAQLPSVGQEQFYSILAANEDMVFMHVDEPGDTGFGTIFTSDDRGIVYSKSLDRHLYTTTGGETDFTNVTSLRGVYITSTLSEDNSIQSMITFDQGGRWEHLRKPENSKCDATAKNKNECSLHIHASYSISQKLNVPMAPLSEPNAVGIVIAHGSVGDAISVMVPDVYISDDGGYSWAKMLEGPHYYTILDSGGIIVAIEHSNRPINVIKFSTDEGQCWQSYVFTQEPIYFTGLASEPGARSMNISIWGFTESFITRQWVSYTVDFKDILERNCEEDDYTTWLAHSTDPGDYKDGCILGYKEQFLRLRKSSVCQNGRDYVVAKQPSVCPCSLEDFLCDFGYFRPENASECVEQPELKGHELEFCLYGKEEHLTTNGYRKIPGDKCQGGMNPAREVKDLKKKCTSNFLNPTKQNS
In words: pull-down. The following applies: both partners purified.

B1: His-tagged full-length recombinant PrP (natural protein)
chain: not shown
With B1, the binding result is given as “binds”.

Values taken from publication PMC5509376 (PLoS Pathogens, 2017).
